Experimental findings from paper PMC3043095 are described below.

Test [1] addresses leafhopper actin (Circulifer haematoceps, Ciha-1 cells) (Circulifer haematoceps (endogenous in Ciha-1)).
Test [2] shares this target. This is another data set of the same source.

Consider “His6-tagged PGK-FL5 (S. citri PGK amino acids 49 to 154) (from UniProt Q7WTU1 49-154) (domain or fragment)”, for which the S. citri transmission by infected leafhoppers injected with 0.2 µg PGK-FL5: relative percentage of batches with positive culture (phosphate buffer = 100) (% relative to phosphate buffer control) in test [1] is 58.6. Further, the reduction of S. citri internalization into Ciha-1 cells (gentamicin protection assay) after preincubation of cells with 50 and 400 µg/ml PGK-FL5 (45% and 80%) (% reduction of internalization) in test [2] was found to be 80.
“His6-tagged PGK-FL4 (S. citri PGK amino acids 101 to 412) (from UniProt Q7WTU1 101-412) (domain or fragment)” showed a S. citri transmission by infected leafhoppers injected with 0.2 µg PGK-FL4: relative percentage of batches with positive culture (phosphate buffer = 100) (% relative to phosphate buffer control) in test [1] of 101.
In test [1], “Spiroplasma citri phosphoglycerate kinase, His6-tagged, full length (from UniProt Q7WTU1 1-412) (enzyme)” registered a S. citri transmission by infected leafhoppers injected with 0.2 µg His6-tagged PGK: relative percentage of batches with positive culture (phosphate buffer = 100) (% relative to phosphate buffer control) of 51.7. Besides, the inhibition of S. citri internalization into Ciha-1 cells (gentamicin protection assay) after preincubation of cells with 400 µg/ml His6-tagged PGK (% inhibition of invasion) in test [2] is 85.
